# PMC4419512
# pKd: −log10 of the molar value.
# What was measured:
# [1] = target: HIV-1 RF envelope glycoprotein (Env) on virus (HIV-1 (RF)) (UniProt P04579)
# [2] = target: HIV-1 subtype A Q168.a2 envelope (Env) on pseudovirus (HIV-1 subtype A)
# [3] = target: HIV-1 subtype A Q23.7 envelope (Env) on pseudovirus (HIV-1 subtype A)
# [4] = target: HIV-1 subtype B CAAN5342.A2 envelope (Env) on pseudovirus (HIV-1 subtype B)
# [5] = target: HIV-1 subtype B JR-FL envelope (Env) on pseudovirus (HIV-1 subtype B) (UniProt Q75760)
# [6] = target: HIV-1 subtype B PVO.4 envelope (Env) on pseudovirus (HIV-1 subtype B)
# [7] = target: HIV-1 subtype B QH0692.42 envelope (Env) on pseudovirus (HIV-1 subtype B)
# [8] = target: HIV-1 subtype C CAP206.8 envelope (Env) on pseudovirus (HIV-1 subtype C)
# [9] = target: HIV-1 subtype C COT6.15 envelope (Env) on pseudovirus (HIV-1 subtype C)
# [10] = target: HIV-1 subtype C DU151.2 envelope (Env) on pseudovirus (HIV-1 subtype C)
# [11] = target: HIV-1 subtype C Du156.12 envelope (Env) on pseudovirus (HIV-1 subtype C)
# [12] = target: HIV-1 subtype C Du179.14 envelope (Env) on pseudovirus (HIV-1 subtype C)
# [13] = target: monomeric, glycosylated, baculovirus-produced HIV-1 IIIB gp120 (HIV-1 (IIIB)); assay: ITC; lectin (180 μM) in the syringe, gp120 (2.5 μM) in the cell; 55 injections of 5 μl, 600 s spacing, 300 rpm, 30°C; VP-ITC
Substance,Anti-HIV EC50: concentration at which 50% of CEM-SS cells are protected from the cytopathic effects of HIV-1RF infection (XTT assay) [1] [nM],"IC50 of neutralisation, single cycle Tzm-bl pseudovirus assay [2] [nM]","IC50 of neutralisation, single cycle Tzm-bl pseudovirus assay [3] [nM]","IC50 of neutralisation, single cycle Tzm-bl pseudovirus assay [4] [nM]","IC50 of neutralisation, single cycle Tzm-bl pseudovirus assay [5] [nM]","IC50 of neutralisation, single cycle Tzm-bl pseudovirus assay [6] [nM]","IC50 of neutralisation, single cycle Tzm-bl pseudovirus assay [7] [nM]","IC50 of neutralisation, single cycle Tzm-bl pseudovirus assay [8] [nM]","IC50 of neutralisation, single cycle Tzm-bl pseudovirus assay [9] [nM]","IC50 of neutralisation, single cycle Tzm-bl pseudovirus assay [10] [nM]","IC50 of neutralisation, single cycle Tzm-bl pseudovirus assay [11] [nM]","IC50 of neutralisation, single cycle Tzm-bl pseudovirus assay [12] [nM]",pKd [13],dH [13] [kcal/mol]
"4mGRFT, tandem repeat of four mGRFT (1GS-S) domains joined by Gly-Thr-Gly linkers (designed binder)",0.0012,0.273,0.276,0.232,0.287,0.185,0.17,0.164,0.273,0.3,0.0887,0.0934,–,–
"2mGRFT, tandem repeat of two mGRFT (1GS-S) domains joined by a Gly-Thr-Gly linker (designed binder)",0.0027,1.55,7.26,5.27,2.09,0.301,0.202,0.178,1.46,0.694,0.0182,0.158,8.30,-69.6
"2mGRFT3, tandem repeat of two mGRFT (1GS-S) domains joined by a (Gly-Thr-Gly)3 linker (designed binder)",0.0026,5.28,7.16,16.9,5.77,0.558,0.513,0.696,2.54,1.7,0.0616,0.144,8.52,-47.2
monomeric griffithsin mGRFT (1GS-S) (from UniProt P84801 16-121) (natural protein),119,–,–,–,–,–,–,–,–,–,–,–,6.95,-35.5
"3mGRFT, tandem repeat of three mGRFT (1GS-S) domains joined by Gly-Thr-Gly linkers (designed binder)",0.001,0.331,0.432,0.326,0.325,0.27,0.223,0.181,0.412,0.308,0.0794,0.124,8.52,-74.4
"griffithsin (GRFT), native domain-swapped homodimer (from UniProt P84801 1-121) (natural protein)",0.0138,3.8,1.19,7.34,0.922,0.037,0.0473,2.14,0.734,1.49,0.0324,0.606,8.10,-30.4
